Assay results published in patent US20110274694A1 (JULIUS MAXIMILIANS UNIVERSITAET WUERZBURG, published 2011).

Target: T1, HA-tagged wild-type Erk2 (HA-Erk2, T188T or AA1-358) (mouse, UniProt P63085 1-358)
T1 construct: Mouse cDNA in a CMV expression plasmid, expressed in transfected cells; also called wt-Erk2; not shown: hemagglutinin (HA) tag
Test: co-precipitation of HA-tagged and Flag-tagged Erk2 after carbachol stimulation
Experimental: HEK293-cells were cultured in the absence or presence of carbachol (100 μM, 6 min) or UK14304 (1 μM, 10 min) before lysis. The inventors prepared ventricular tissue from mouse hearts derived from male 129SvEv (FIG. 1g,h), FVB/N wild-type (WT) or Erk2^T188-transgenic mice (1188T, T188D, T188S, T188A) (FVB/N background) without or after transverse aortic constriction (TAC, see Fig. legends for the duration of TAC) or carbachol-infusion. Control animals were strain-, age- and gender-matched. Lysates of ventricular tissue underwent sonification before immunoblot or immunoprecipitation assays.
FIG. 4 Activation of the entire MAPK-cascade is necessary for interaction of Gβγ with Erk1/2. […] (b) Gene silencing of Raf1 suppressed the carbachol-stimulated interaction of Erk1/2 with Gβ as assessed by co-immunoprecipitation with ERK1/2-specific antibodies (anti-ERK1/2). (c) Inhibition of Mek1/2-activity by PD98059 (50 μM) suppressed the carbachol-stimulated (CCH, 5 min) interaction of HA-Raf1 (Raf1) with Gβ as assessed by co-immunoprecipitation. […] (g, h) Interactions of HA-tagged wild-type Erk2 (AA1-358), truncated Erk2-mutants (AA1-318; AA22-358; AA22-318) and dimerization-deficient Erk2^Δ174-177 with Gβγ as assessed by co-immunoprecipition (g) and carbachol-stimulated inositol phosphate signaling (h) in HEK293-cells. […]

B1: Flag-Erk2^Δ174-177 (enzyme)
chain: MAAAAAAGPEMVRGQVFDVGPRYTNLSYIGEGAYGMVCSAYDNLNKVRVAIKKISPFEHQTYCQRTLREIKILLRFRHENIIGINDIIRAPTIEQMKDVYIVQDLMETDLYKLLKTQHLSNDHICYFLYQILRGLKYIHSANVLHRDLKPSNLLLNTTCDLKICDFGLARVADHTGFLTEYVATRWYRAPEIMLNSKGYTKSIDIWSVGCILAEMLSNRPIFPGKHYLDQLNHILGILGSPSQEDLNCIINLKARNYLLSLPHKNKVPWNRLFPNADSKALDLLDKMLTFNPHKRIEVEQALAHPYLEQYYDPSDEPIAEAPFKFDMELDDLPKEKLKELIFEETARFQPGYRS
notes: also called D174-177; dimerization-deficient Erk2^Δ174-177-mutant; not shown: Flag tag
binding result: no binding
